Among the data in patent US20240116985A1, “STAPLED PEPTIDES AND METHODS THEREOF” (priority 2020, published 2024) are IC50 and EC50 values, retold here.

The labels stand for the following.
B1: I-2417 (peptide)
peptide: Ac-[αAllylPro]D[tBuAla][B5(5)]NT[Aib]AFN[PyrS2″][3Thi][34ClF]Q-NH2
modifications: staple 1-4, 4-11; reading uncertain; also: printed as Ac-PL3-Asp-Npg-B5-Asn-Thr-Aib-Ala-Phe-Asn-PyrS2-3Thi-34C1F-Gln-NH2

Starred links: 1 amine or outer side, 2 acyl side, 3 side chain; linkers in the order of their positions; H or OH if unused. Positions of bridges follow the written chain, without caps; N, C: chain ends. Non-standard residues stand in square brackets, D forms with d. Primed or numbered codes have the meaning given here. No end group written: not given here. *: point of attachment. PyrS2″ = (S)-3-amino-1-((pent-4-en-1-yloxy)carbonyl)pyrrolidine-3-carboxylic acid (stapling residue), C=CCCCOC(=O)N1CC[C@@](N[*:1])(C(=O)[*:2])C1; B5(4) = 2,2-bis(4-pentenyl)glycine = 2-amino-2-(pent-4-en-1-yl)hept-6-enoic acid (stitching residue), C=CCCCC(CCCC=C)(N[*:1])C(=O)[*:2]; B5(5) = 2,2-bis(4-pentenyl)glycine, 2-amino-2-(pent-4-en-1-yl)hept-6-enoic acid (stitching residue), C=CCCCC(CCCC=C)(N[*:1])C(=O)[*:2]; (CH2NMe2)4SEF = (S)-2-amino-3-(4-(3-(dimethylamino)prop-1-yn-1-yl)phenyl)propanoic acid, CN(C)CC#Cc1ccc(C[C@H](N[*:1])C(=O)[*:2])cc1; TfeGA = (S)-2-amino-3-((carboxymethyl)(2,2,2-trifluoroethyl)amino)propanoic acid, O=C([C@H](CN(CC(=O)[*:3])CC(F)(F)F)N[*:1])[*:2]; B5(31) = 2-amino-2-(pent-4-en-1-yl)hept-6-enoic acid (bis-pentenylglycine, stitching residue), C=CCCCC(CCCC=C)(N[*:1])C(=O)[*:2]; PyrS2 = (S)-3-amino-1-((pent-4-en-1-yloxy)carbonyl)pyrrolidine-3-carboxylic acid, C=CCCCOC(=O)N1CC[C@@](N[*:1])(C(=O)[*:2])C1; 5iPr3COOHF = (S)-3-(2-amino-2-carboxyethyl)-5-isopropylbenzoic acid, CC(C)c1cc(C[C@H](N[*:1])C(=O)[*:2])cc(C(=O)[*:3])c1; (3C)TriAzLys = (S)-2-amino-6-(4-propyl-1H-1,2,3-triazol-1-yl)hexanoic acid, CCCc1cn(CCCC[C@H](N[*:1])C(=O)[*:2])nn1; (bismethoxyethylamine)GlnR″ = N5,N5-bis(2-methoxyethyl)-L-glutamine, COCCN(CCOC)C(=O)CC[C@H](N[*:1])C(=O)[*:2]; Lithocholoyl = C[C@H](CCC(=O)*)[C@H]1CC[C@H]2[C@@H]3CC[C@@H]4C[C@H](O)CC[C@]4(C)[C@H]3CC[C@]12C; MorphAsn = (S)-2-amino-4-morpholino-4-oxobutanoic acid, O=C(C[C@H](N[*:1])C(=O)[*:2])N1CCOCC1; B5(3) = 2,2-bis(4-pentenyl)glycine (stitching residue), C=CCCCC(CCCC=C)(N[*:1])C(=O)[*:2]; CO2Hex = N-term cyclohexyl hydrogen carbonate, O=C(OC1CCCCC1)*; CO2Ph = N-term phenyl hydrogen carbonate, O=C(Oc1ccccc1)*; Nva(5-morpholino) = N[C@@H](CCCN1CCOCC1)C(=O)O; Phe(3-COOH) = N[C@@H](Cc1cccc(C(=O)O)c1)C(=O)O; 2F3MeF = Cc1cccc(C[C@H](N[*:1])C(=O)[*:2])c1F; Phe(2-CF3) = N[C@@H](Cc1ccccc1C(F)(F)F)C(=O)O; Phe(2-Cl) = N[C@@H](Cc1ccccc1Cl)C(=O)O; Bta = N[C@@H](Cc1csc2ccccc12)C(=O)O; Lys(iPr) = CC(C)NCCCC[C@H](N)C(=O)O; αAllylPro = C=CC[C@@]1(C(=O)O)CCCN1; Azidoacetyl = [N-]=[N+]=NCC(=O)*; tBuAla = CC(C)(C)C[C@H](N)C(=O)O; 3Thi = N[C@@H](Cc1ccsc1)C(=O)O; Cha = N[C@@H](CC1CCCCC1)C(=O)O; hSer = N[C@@H](CCO)C(=O)O; 34ClF = not defined here; Aib = CC(C)(N)C(=O)O; Moc = COC(=O)*

The target in one experiment is full-length beta-Catenin (Uniprot ID P35222) (Homo sapiens (Human)) (UniProt P35222). The experiment is described as follows: fluorescence polarization competition; displacement of 5FAM-TCF4(10-53) from full-length beta-catenin.
Target sequence in this assay (P35222 whole entry): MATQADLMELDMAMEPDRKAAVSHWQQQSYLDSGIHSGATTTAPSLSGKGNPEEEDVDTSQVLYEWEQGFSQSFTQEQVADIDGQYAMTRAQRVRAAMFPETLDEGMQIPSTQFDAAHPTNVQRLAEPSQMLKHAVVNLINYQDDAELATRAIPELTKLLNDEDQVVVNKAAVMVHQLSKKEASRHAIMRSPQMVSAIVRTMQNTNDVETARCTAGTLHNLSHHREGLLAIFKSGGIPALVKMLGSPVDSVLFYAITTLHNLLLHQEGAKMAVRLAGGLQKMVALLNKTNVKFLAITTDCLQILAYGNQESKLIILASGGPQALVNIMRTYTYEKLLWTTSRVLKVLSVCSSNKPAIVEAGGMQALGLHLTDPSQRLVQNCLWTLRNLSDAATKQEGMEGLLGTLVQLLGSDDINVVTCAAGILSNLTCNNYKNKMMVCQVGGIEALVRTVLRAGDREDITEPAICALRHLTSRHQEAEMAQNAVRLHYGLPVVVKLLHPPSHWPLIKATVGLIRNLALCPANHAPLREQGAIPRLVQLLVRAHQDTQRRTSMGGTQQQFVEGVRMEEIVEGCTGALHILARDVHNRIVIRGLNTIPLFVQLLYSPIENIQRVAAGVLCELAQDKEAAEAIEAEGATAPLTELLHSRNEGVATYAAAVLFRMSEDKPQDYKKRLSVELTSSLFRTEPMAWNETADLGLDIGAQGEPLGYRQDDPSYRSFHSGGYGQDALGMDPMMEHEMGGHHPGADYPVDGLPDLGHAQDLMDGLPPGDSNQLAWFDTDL
As to Ac-[αAllylPro]DK(Lithocholoyl)[B5(5)]DDAAFL[PyrS2][3Thi][Bta]Q-NH2 (staple 1-4, 4-11) [I-1469], the IC50 is 95 nM.

Ac-[αAllylPro]D[tBuAla][B5(4)]DD[(CH2NMe2)4SEF]AFL[PyrS2]F[Bta]Q (staple 1-4, 4-11) [I-1467] gave a half-inhibitory concentration (IC50) of 12 nM. The same measure, in the same setting: for Ac-[αAllylPro]D[tBuAla][B5(5)]DDAAFQ[PyrS2][3Thi][Bta]H-NH2 (staple 1-4, 4-11) [I-1459] the value was 5 nM; for Ac-[αAllylPro]D[tBuAla][B5(5)]DDAAFQ[PyrS2][3Thi][Bta]H-NH2 (staple 1-4, 4-11) [I-1460], 7 nM.

The target is the same in the next experiment. The experiment is described as follows: fluorescence polarization competition; full-length beta-catenin, competitor 5FAM-TCF4(10-53) probe.
Azidoacetyl-[αAllylPro]D[tBuAla][B5(5)]DDAAFT[PyrS2][Phe(2-Cl)][Bta][dT]-NH2 (staple 1-4, 4-11) [I-1060]: the EC50 was determined as 38 nM. As for Ac-[αAllylPro]D[tBuAla][B5(5)]NT[Aib]AFN[PyrS2″][3Thi][Bta]R-NH2 (staple 1-4, 4-11) [I-2413], the IC50 amounted to 133 nM. Azidoacetyl-[αAllylPro]D[tBuAla][B5(5)]DDAAFN[PyrS2][3Thi][Bta][dT]-NH2 (staple 1-4, 4-11) [I-1058] came in with an EC50 of 14 nM. As to B1, the IC50 came out at 158 nM. Still for that read-out and setting: for CO2Hex-[αAllylPro]D[tBuAla][B5(31)]D[Phe(3-COOH)]AAFL[PyrS2″][Phe(2-Cl)][Bta]A-NH2 (staple 1-4, 4-11) [I-2325] the value was 1350 nM. On the same count and under the same terms, the value for Ac-[αAllylPro]D[tBuAla][B5(4)]D[Phe(3-COOH)][(bismethoxyethylamine)GlnR″]AFL[PyrS2″][2F3MeF][Bta]A-NH2 (staple 1-4, 4-11) [I-2322] was 7 nM; that for Ac-[αAllylPro][hSer][tBuAla][B5(5)]DHAAFT[PyrS2″]F[Bta]Q-NH2 (staple 1-4, 4-11) [I-2438] was 1760 nM.

Ac-[αAllylPro]D[tBuAla][B5(5)]NT[Aib]AFL[PyrS2][3Thi][Bta]Q-NH2 (staple 1-4, 4-11) [I-2408]: the IC50 stood at 10000 nM. On to CO2Ph-[αAllylPro]D[tBuAla][B5(31)]DDAAFQ[PyrS2″][3Thi][Bta]H-NH2 (staple 1-4, 4-11) [I-2326], for which the IC50 was 185 nM.

Azidoacetyl-[αAllylPro]D[tBuAla][B5(5)][3Thi][TfeGA]AAFN[PyrS2]D[Bta]Q-NH2 (staple 1-4, 4-11; also: staple isomer unspecified: earlier eluting HPLC peak) [I-1056] came in with an EC50 of 6490 nM. As for Ac-[αAllylPro]D[tBuAla][B5(5)]D[5iPr3COOHF]QAFL[PyrS2″][Phe(2-CF3)][Bta]A-NH2 (staple 1-4, 4-11) [I-2431], the IC50 came out at 33 nM. Same read-out and setting: for Ac-[αAllylPro]N[Cha][B5(5)]DQNAFL[PyrS2″]F[Bta]K-NH2 (staple 1-4, 4-11) [I-2420] the value was 2120 nM; for Ac-[αAllylPro]D[tBuAla][B5(5)]NT[Aib]AFN[PyrS2″][3Thi][Bta]F-NH2 (staple 1-4, 4-11) [I-2412], 267 nM.

As for Ac-[αAllylPro]N[tBuAla][B5(31)]NTAAFN[PyrS2″][3Thi][Bta]Q-NH2 (staple 1-4, 4-11) [I-2333], the IC50 was 10000 nM.

In turn, Azidoacetyl-[αAllylPro]D[tBuAla][B5(5)]DDAAFN[PyrS2]F[Bta]H-NH2 (staple 1-4, 4-11) [I-1055] yielded an EC50 of 7 nM. Ac-[αAllylPro]N[tBuAla][B5(5)]DQAAFH[PyrS2″]F[Bta]Q-NH2 (staple 1-4, 4-11) [I-2440] came in with an IC50 of 360 nM. The same measure, in the same setting: for Ac-[αAllylPro]D[tBuAla][B5(5)]NT[Aib]AFN[PyrS2″][3Thi][Bta]A-NH2 (staple 1-4, 4-11) [I-2411] the value was 140 nM. In turn, Ac-[αAllylPro]D[tBuAla][B5(5)]D[Phe(3-COOH)]AAFL[PyrS2″][Phe(2-CF3)][Bta]S[(3C)TriAzLys]-NH2 (staple 1-4, 4-11) [I-2432] showed an IC50 of 60 nM.

Ac-[αAllylPro]N[Cha][B5(5)]DQ[hSer]AFL[PyrS2″]F[Bta]K-NH2 (staple 1-4, 4-11) [I-2419]: the IC50 amounted to 203 nM. On the same count and under the same terms, the value for Ac-[αAllylPro]N[Cha][B5(5)]DQQAFL[PyrS2″]F[Bta]K-NH2 (staple 1-4, 4-11) [I-2421] was 145 nM; that for Ac-[αAllylPro]E[tBuAla][B5(31)]NTAAFN[PyrS2″][3Thi][Bta]Q-NH2 (staple 1-4, 4-11; also: staple isomer, earlier eluting HPLC peak) [I-2331] was 10000 nM; that for Ac-[αAllylPro]N[Cha][B5(5)]DQ[Lys(iPr)]AFL[PyrS2″]F[Bta][Nva(5-morpholino)]-NH2 (staple 1-4, 4-11) [I-2428] was 401 nM. On the same count and under the same terms, the value for Ac-[αAllylPro]D[tBuAla][B5(3)]N[Phe(3-COOH)]AAFN[PyrS2″][3Thi][Bta]Q-NH2 (staple 1-4, 4-11) [I-2335] was 7 nM. Regarding Moc-[αAllylPro]D[tBuAla][B5(3)]D[Phe(3-COOH)]AAFL[PyrS2″][Phe(2-Cl)][Bta]A-NH2 (staple 1-4, 4-11) [I-2324], the IC50 came out at 83 nM. Consider CO2Ph-[αAllylPro]D[tBuAla][B5(31)]D[Phe(3-COOH)]AAFL[PyrS2″][Phe(2-Cl)][Bta]A-NH2 (staple 1-4, 4-11) [I-2327], for which the IC50 worked out at 376 nM. Same read-out and setting: for {2‑(3-(allyloxy)phenyl)acetyl}-PD[tBuAla][B5(5)]D[TfeGA]AAFL[PyrS2][3Thi][Bta]Q-NH2 (staple 4-11, N-4; also: staples hydrogenated, -CH=CH- reduced to -CH2-CH2-) [I-2405] the value was 568 nM; for Ac-[αAllylPro]N[Cha][B5(5)]DQSAFL[PyrS2″]F[Bta]K-NH2 (staple 1-4, 4-11) [I-2422], 3360 nM. On the same count and under the same terms, the value for Ac-[αAllylPro]E[tBuAla][B5(31)]NTAAFN[PyrS2″][3Thi][Bta]Q-NH2 (staple 1-4, 4-11) [I-2332] was 10000 nM.

Azidoacetyl-[αAllylPro]D[tBuAla][B5(5)][3Thi][TfeGA]AAFN[PyrS2]D[Bta]Q-NH2 (staple 1-4, 4-11; also: staple isomer unspecified: later eluting HPLC peak) [I-1057]: the EC50 was 6640 nM. Ac-[αAllylPro]D[Cha][B5(5)]DQ[Lys(iPr)]AFL[PyrS2″]F[Bta]K-NH2 (staple 1-4, 4-11) [I-2429] displayed a concentration for half-maximal inhibition (IC50) of 10 nM.

In the case of Ac-[αAllylPro]D[tBuAla][B5(31)]NTAAFT[PyrS2″][3Thi][Bta]A-NH2 (staple 1-4, 4-11) [I-2334], the IC50 was found to be 656 nM. Same read-out and setting: for Ac-[αAllylPro][hSer][tBuAla][B5(5)]DQAAFH[PyrS2″]F[Bta]Q-NH2 (staple 1-4, 4-11) [I-2439] the value was 2760 nM; for Ac-[αAllylPro]N[Cha][B5(5)]DQ[Lys(iPr)]AFL[PyrS2″]F[Bta][MorphAsn]-NH2 (staple 1-4, 4-11) [I-2426], 46 nM.
